Test results from patent US10941182 (Amgen, dated 2021).
Starred links: 1 amine or outer side, 2 acyl side, 3 side chain; linkers in the order of their positions; H or OH if unused. Non-standard residues stand in square brackets, D forms with d. *: point of attachment. AC4Abu = α-carboxy-4-aminobutyric acid, O=C(C(CCN[*:1])C(=O)[*:3])[*:2]; Oic = O=C(O)[C@@H]1C[C@@H]2CCCC[C@@H]2N1; Phe(4-Cl) = N[C@@H](Cc1ccc(Cl)cc1)C(=O)O; dPhe(4-Cl) = N[C@H](Cc1ccc(Cl)cc1)C(=O)O; γGlu = O=C(O)[C@H](CCC(=O)[*:2])N[*:1]; 2Nal = N[C@@H](Cc1ccc2ccccc2c1)C(=O)O; NMeR = CN[C@@H](CCCNC(=N)N)C(=O)O; Tridecanoyl = CCCCCCCCCCCCC(=O)*; hArg = N=C(N)NCCCC[C@H](N)C(=O)O; 3Pal = N[C@@H](Cc1cccnc1)C(=O)O; Cha = N[C@@H](CC1CCCCC1)C(=O)O; β3hL = CC(C)C[C@H](N)CC(=O)O; β3hP = O=C(O)C[C@@H]1CCCN1; Nle = CCCC[C@H](N)C(=O)O; AEEA = NCCOCCOCC(=O)O; βAla = NCCC(=O)O; BLys = β-lysine

T1: human APJ receptor (human, UniProt P35414 1-380)
T1 sequence (looked up): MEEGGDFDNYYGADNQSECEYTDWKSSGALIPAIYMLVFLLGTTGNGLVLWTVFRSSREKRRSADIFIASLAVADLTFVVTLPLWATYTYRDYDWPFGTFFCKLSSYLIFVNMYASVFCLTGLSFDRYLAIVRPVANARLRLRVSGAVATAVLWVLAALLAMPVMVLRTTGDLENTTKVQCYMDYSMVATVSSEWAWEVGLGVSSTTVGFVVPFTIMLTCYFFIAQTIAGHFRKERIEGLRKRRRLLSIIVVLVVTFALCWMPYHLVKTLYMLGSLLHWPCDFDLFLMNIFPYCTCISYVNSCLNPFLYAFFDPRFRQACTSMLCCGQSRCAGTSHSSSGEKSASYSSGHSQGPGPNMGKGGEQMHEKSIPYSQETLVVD

T2: rat APJ receptor (rat, UniProt Q9JHG3 1-377)
T2 sequence (looked up): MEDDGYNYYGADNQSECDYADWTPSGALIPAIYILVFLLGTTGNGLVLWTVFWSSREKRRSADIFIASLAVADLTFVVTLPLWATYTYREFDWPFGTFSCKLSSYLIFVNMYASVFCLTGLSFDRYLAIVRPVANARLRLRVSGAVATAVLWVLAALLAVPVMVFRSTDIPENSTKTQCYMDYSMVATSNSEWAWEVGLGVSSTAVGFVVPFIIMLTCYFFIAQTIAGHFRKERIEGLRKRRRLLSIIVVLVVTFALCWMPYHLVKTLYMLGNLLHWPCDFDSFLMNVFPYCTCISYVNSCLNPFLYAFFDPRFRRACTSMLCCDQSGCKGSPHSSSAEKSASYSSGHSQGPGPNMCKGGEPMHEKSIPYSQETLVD

B1: Apelin polypeptide SEQ ID NO: 293 (peptide)
peptide: Tridecanoyl-[γGlu][AEEA][AEEA][dQ][hArg]P[NMeR][Cha]SH[βAla]G[Oic][Nle]P[dPhe(4-Cl)]-OH
SMILES: CCCCCCCCCCCCC(=O)N[C@@H](CCC(=O)NCCOCCOCC(=O)NCCOCCOCC(=O)N[C@H](CCC(N)=O)C(=O)N[C@@H](CCCCNC(=N)N)C(=O)N1CCC[C@H]1C(=O)N(C)[C@@H](CCCNC(=N)N)C(=O)N[C@@H](CC1CCCCC1)C(=O)N[C@@H](CO)C(=O)N[C@@H](Cc1c[nH]cn1)C(=O)NCCC(=O)NCC(=O)N1[C@H](C(=O)N[C@@H](CCCC)C(=O)N2CCC[C@H]2C(=O)N[C@H](Cc2ccc(Cl)cc2)C(=O)O)C[C@@H]2CCCC[C@@H]21)C(=O)O
B2: Apelin polypeptide SEQ ID NO: 295 (peptide)
peptide: Tridecanoyl-[γGlu][AEEA][AEEA][dQ][hArg]P[NMeR][Cha]SHKG[Oic][Nle][βAla][dPhe(4-Cl)]-OH
SMILES: CCCCCCCCCCCCC(=O)N[C@@H](CCC(=O)NCCOCCOCC(=O)NCCOCCOCC(=O)N[C@H](CCC(N)=O)C(=O)N[C@@H](CCCCNC(=N)N)C(=O)N1CCC[C@H]1C(=O)N(C)[C@@H](CCCNC(=N)N)C(=O)N[C@@H](CC1CCCCC1)C(=O)N[C@@H](CO)C(=O)N[C@@H](Cc1c[nH]cn1)C(=O)N[C@@H](CCCCN)C(=O)NCC(=O)N1[C@H](C(=O)N[C@@H](CCCC)C(=O)NCCC(=O)N[C@H](Cc2ccc(Cl)cc2)C(=O)O)C[C@@H]2CCCC[C@@H]21)C(=O)O
B3: Apelin polypeptide SEQ ID NO: 302 (peptide)
peptide: Tridecanoyl-[γGlu][AEEA][AEEA][dQ][hArg]P[NMeR][β3hL]SHKG[Oic][Nle]P[dPhe(4-Cl)]-OH
SMILES: CCCCCCCCCCCCC(=O)N[C@@H](CCC(=O)NCCOCCOCC(=O)NCCOCCOCC(=O)N[C@H](CCC(N)=O)C(=O)N[C@@H](CCCCNC(=N)N)C(=O)N1CCC[C@H]1C(=O)N(C)[C@@H](CCCNC(=N)N)C(=O)N[C@H](CC(=O)N[C@@H](CO)C(=O)N[C@@H](Cc1c[nH]cn1)C(=O)N[C@@H](CCCCN)C(=O)NCC(=O)N1[C@H](C(=O)N[C@@H](CCCC)C(=O)N2CCC[C@H]2C(=O)N[C@H](Cc2ccc(Cl)cc2)C(=O)O)C[C@@H]2CCCC[C@@H]21)CC(C)C)C(=O)O
B4: Apelin polypeptide SEQ ID NO: 303 (peptide)
peptide: Tridecanoyl-[AC4Abu][AEEA][AEEA][dQ][hArg]P[NMeR][Cha][βAla]HKG[Oic][Nle]P[dPhe(4-Cl)]-OH
SMILES: CCCCCCCCCCCCC(=O)NCCC(C(=O)O)C(=O)NCCOCCOCC(=O)NCCOCCOCC(=O)N[C@H](CCC(N)=O)C(=O)N[C@@H](CCCCNC(=N)N)C(=O)N1CCC[C@H]1C(=O)N(C)[C@@H](CCCNC(=N)N)C(=O)N[C@@H](CC1CCCCC1)C(=O)NCCC(=O)N[C@@H](Cc1c[nH]cn1)C(=O)N[C@@H](CCCCN)C(=O)NCC(=O)N1[C@H](C(=O)N[C@@H](CCCC)C(=O)N2CCC[C@H]2C(=O)N[C@H](Cc2ccc(Cl)cc2)C(=O)O)C[C@@H]2CCCC[C@@H]21
B5: Apelin polypeptide SEQ ID NO: 305 (peptide)
peptide: Tridecanoyl-[γGlu][AEEA][AEEA][dQ][hArg]P[NMeR][Cha]SH[3Pal]G[Oic][Nle]P[dPhe(4-Cl)]-OH
SMILES: CCCCCCCCCCCCC(=O)N[C@@H](CCC(=O)NCCOCCOCC(=O)NCCOCCOCC(=O)N[C@H](CCC(N)=O)C(=O)N[C@@H](CCCCNC(=N)N)C(=O)N1CCC[C@H]1C(=O)N(C)[C@@H](CCCNC(=N)N)C(=O)N[C@@H](CC1CCCCC1)C(=O)N[C@@H](CO)C(=O)N[C@@H](Cc1c[nH]cn1)C(=O)N[C@@H](Cc1cccnc1)C(=O)NCC(=O)N1[C@H](C(=O)N[C@@H](CCCC)C(=O)N2CCC[C@H]2C(=O)N[C@H](Cc2ccc(Cl)cc2)C(=O)O)C[C@@H]2CCCC[C@@H]21)C(=O)O
B6: Apelin polypeptide SEQ ID NO: 304 (peptide)
peptide: Tridecanoyl-[γGlu][AEEA][AEEA][dQ][hArg]P[NMeR][Cha]S[βAla]KG[Oic][Nle]P[dPhe(4-Cl)]-OH
SMILES: CCCCCCCCCCCCC(=O)N[C@@H](CCC(=O)NCCOCCOCC(=O)NCCOCCOCC(=O)N[C@H](CCC(N)=O)C(=O)N[C@@H](CCCCNC(=N)N)C(=O)N1CCC[C@H]1C(=O)N(C)[C@@H](CCCNC(=N)N)C(=O)N[C@@H](CC1CCCCC1)C(=O)N[C@@H](CO)C(=O)NCCC(=O)N[C@@H](CCCCN)C(=O)NCC(=O)N1[C@H](C(=O)N[C@@H](CCCC)C(=O)N2CCC[C@H]2C(=O)N[C@H](Cc2ccc(Cl)cc2)C(=O)O)C[C@@H]2CCCC[C@@H]21)C(=O)O
B7: Apelin polypeptide SEQ ID NO: 294 (peptide)
peptide: Tridecanoyl-[γGlu][AEEA][AEEA][dQ][hArg]P[NMeR][Cha]SHK[βAla][Oic][Nle]P[dPhe(4-Cl)]-OH
SMILES: CCCCCCCCCCCCC(=O)N[C@@H](CCC(=O)NCCOCCOCC(=O)NCCOCCOCC(=O)N[C@H](CCC(N)=O)C(=O)N[C@@H](CCCCNC(=N)N)C(=O)N1CCC[C@H]1C(=O)N(C)[C@@H](CCCNC(=N)N)C(=O)N[C@@H](CC1CCCCC1)C(=O)N[C@@H](CO)C(=O)N[C@@H](Cc1c[nH]cn1)C(=O)N[C@@H](CCCCN)C(=O)NCCC(=O)N1[C@H](C(=O)N[C@@H](CCCC)C(=O)N2CCC[C@H]2C(=O)N[C@H](Cc2ccc(Cl)cc2)C(=O)O)C[C@@H]2CCCC[C@@H]21)C(=O)O
B8: Apelin polypeptide SEQ ID NO: 405 (peptide)
peptide: Tridecanoyl-[AC4Abu][AEEA][AEEA]Q[hArg]P[NMeR][Cha]SHKG[Oic][Nle]P[2Nal]-OH
SMILES: CCCCCCCCCCCCC(=O)NCCC(C(=O)O)C(=O)NCCOCCOCC(=O)NCCOCCOCC(=O)N[C@@H](CCC(N)=O)C(=O)N[C@@H](CCCCNC(=N)N)C(=O)N1CCC[C@H]1C(=O)N(C)[C@@H](CCCNC(=N)N)C(=O)N[C@@H](CC1CCCCC1)C(=O)N[C@@H](CO)C(=O)N[C@@H](Cc1c[nH]cn1)C(=O)N[C@@H](CCCCN)C(=O)NCC(=O)N1[C@H](C(=O)N[C@@H](CCCC)C(=O)N2CCC[C@H]2C(=O)N[C@@H](Cc2ccc3ccccc3c2)C(=O)O)C[C@@H]2CCCC[C@@H]21
B9: Apelin polypeptide SEQ ID NO: 362 (peptide)
peptide: Tridecanoyl-[γGlu][AEEA][AEEA]Q[hArg]P[NMeR][Cha]SHKG[Oic][Nle]P[Phe(4-Cl)]-OH
SMILES: CCCCCCCCCCCCC(=O)N[C@@H](CCC(=O)NCCOCCOCC(=O)NCCOCCOCC(=O)N[C@@H](CCC(N)=O)C(=O)N[C@@H](CCCCNC(=N)N)C(=O)N1CCC[C@H]1C(=O)N(C)[C@@H](CCCNC(=N)N)C(=O)N[C@@H](CC1CCCCC1)C(=O)N[C@@H](CO)C(=O)N[C@@H](Cc1c[nH]cn1)C(=O)N[C@@H](CCCCN)C(=O)NCC(=O)N1[C@H](C(=O)N[C@@H](CCCC)C(=O)N2CCC[C@H]2C(=O)N[C@@H](Cc2ccc(Cl)cc2)C(=O)O)C[C@@H]2CCCC[C@@H]21)C(=O)O
B10: Apelin polypeptide SEQ ID NO: 296 (peptide)
peptide: Tridecanoyl-[γGlu][AEEA][AEEA][dQ][hArg]P[NMeR][Cha]SHKG[Oic][Nle][β3hP][dPhe(4-Cl)]-OH
SMILES: CCCCCCCCCCCCC(=O)N[C@@H](CCC(=O)NCCOCCOCC(=O)NCCOCCOCC(=O)N[C@H](CCC(N)=O)C(=O)N[C@@H](CCCCNC(=N)N)C(=O)N1CCC[C@H]1C(=O)N(C)[C@@H](CCCNC(=N)N)C(=O)N[C@@H](CC1CCCCC1)C(=O)N[C@@H](CO)C(=O)N[C@@H](Cc1c[nH]cn1)C(=O)N[C@@H](CCCCN)C(=O)NCC(=O)N1[C@H](C(=O)N[C@@H](CCCC)C(=O)N2CCC[C@H]2CC(=O)N[C@H](Cc2ccc(Cl)cc2)C(=O)O)C[C@@H]2CCCC[C@@H]21)C(=O)O

molecular target: T1, human APJ receptor; test: cell-based or functional assay

Row | EC50 Human APJ Receptor (GTPγS assay) [nM] | Binder
1 | 74.1 | Tridecanoyl-[γGlu][AEEA][AEEA][dQ][hArg]P[NMeR][Cha]SH[BLys]G[Oic][Nle]P[dPhe(4-Cl)]-OH [Apelin polypeptide SEQ ID NO: 306]
2 | 109 | B1
3 | 3.29 | B2
4 | 16.5 | B3
5 | 79.2 | B4
6 | 78 | B5
7 | 139 | B6
8 | > 4170 | B7
9 | 5.75 | B8
10 | 1.97 | B9
11 | 2.75 | B10

molecular target: T2, rat APJ receptor; test: cell-based or functional assay

Row | EC50 Rat APJ Receptor (GTPγS assay) [nM] | Binder
12 | 136 | Tridecanoyl-[γGlu][AEEA][AEEA][dQ][hArg]P[NMeR][Cha]SH[BLys]G[Oic][Nle]P[dPhe(4-Cl)]-OH [Apelin polypeptide SEQ ID NO: 306]
13 | 110 | B1
14 | 10.4 | B2
15 | 14.3 | B3
16 | 74.1 | B4
17 | 66.7 | B5
18 | 260 | B6
19 | 30.7 | B7
20 | 13.8 | B8
21 | 3.75 | B9
22 | 2.32 | B10
